Experimental data from patent US20260297176 (published 2026).

T1: mouse IL-11 (mouse, UniProt P47873)
T1 chain: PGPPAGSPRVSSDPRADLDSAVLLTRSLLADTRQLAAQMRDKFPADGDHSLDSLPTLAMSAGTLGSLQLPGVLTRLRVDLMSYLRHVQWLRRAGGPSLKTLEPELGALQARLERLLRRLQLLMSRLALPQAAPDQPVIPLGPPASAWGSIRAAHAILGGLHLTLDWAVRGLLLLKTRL

T2: human IL-11 (human)
T2 chain: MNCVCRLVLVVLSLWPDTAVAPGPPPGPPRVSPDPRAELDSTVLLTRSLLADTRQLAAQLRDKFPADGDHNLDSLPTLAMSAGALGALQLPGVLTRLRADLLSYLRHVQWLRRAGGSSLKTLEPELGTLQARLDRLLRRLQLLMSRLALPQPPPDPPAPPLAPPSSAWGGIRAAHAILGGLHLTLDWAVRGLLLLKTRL


How the values were obtained:
mouse IL-11 [1] = target: T1, mouse IL-11; assay: SPR
mouse IL-11 [2] = target: T1, mouse IL-11; assay: SPR
human IL-11 [3] = target: T2, human IL-11; assay: SPR
human IL-11 [4] = target: T2, human IL-11; assay: SPR 25C
human IL-11 [5] = target: T2, human IL-11; assay: SPR
human IL-11 [6] = target: T2, human IL-11; assay: SPR
mouse IL-11 [7] = target: T1, mouse IL-11; assay: SPR steady state

Row | Binder | Kd (mouse IL-11 [2]) [pM] | Kd (human IL-11 [3]) [pM] | Kd (human IL-11 [4]) [pM] | also measured
1 | CSJ-B-s-3G8 (antibody, V domains shown) VH: QVTLKESGPGMLQPSKTVSLTCSFSGFSMSTSGMVVSWIRQPSGKSLEWLAAIDWDGEKYYNPSLKSRLTVSKDTSNTQVFLKISSVDIADSATYYCARSGNYFDYWGQGVMVTVSS VL: DIQMTQSPASLSASLGETVTIECRASEDIYNGLVWYQQKPGKSPQLLIYDANRLHTGVPSRFSGGGSGTQYSLKINSLQSEDVASYFCQQYYDYPNTFGAGTKLELK | 50.2 | 17.4 | – | Kd (mouse IL-11 [1]): 159 pM
2 | CSI-s-9B9 (antibody, V domains shown) VH: EVHLQQSGPELVKPGASVKMSCKASGYTFTSYVIHWVKQRPGQGLEWIGNIYPYNDDTNYNEKFKGKATLTSDKSSSTAYMELSSLTSEESAVYFCTRERATYGDLAWFAYWGQGTLVTVSA VL: NIVLTQSPASLAVSLGQRATISCRASENIDSYGNSFMHWYQQKPGQPPKLLIYLASILESGVPARFSGSGSRTDFTLTIDPVEADDAATYYCQQNNEDPYTFGGGTKLEIK | 3770 | 145 | – | –
3 | CVH3 (D54E)/CVL3 (antibody, V domains shown) VH: QVQLQESGPGLVKPSQTLSLTCSFSGFSLSTSGMVVSWIRQPPGKALEWLAAIDWEGEKYYNPSLKSRLTVTKDTSNTQVVLTMTNMDPVDTATYYCARSGNYFEYWGQGTLVTVSS VL: DNQMTQSPSSLSASVGDRVTITCRTSEDIYNALAWYQQKPGKAPQLLIYDANRLHIGVPDRFSGSGSGTDFTLTISSLQAEDVAVYYCQQYYDYPNTFGQGTKLEIK | – | – | 5.01 | –
4 | CVH3 (D54E)/CVL3 + YTE (antibody, V domains shown) VH: QVQLQESGPGLVKPSQTLSLTCSFSGFSLSTSGMVVSWIRQPPGKALEWLAAIDWEGEKYYNPSLKSRLTVTKDTSNTQVVLTMTNMDPVDTATYYCARSGNYFEYWGQGTLVTVSS VL: DNQMTQSPSSLSASVGDRVTITCRTSEDIYNALAWYQQKPGKAPQLLIYDANRLHIGVPDRFSGSGSGTDFTLTISSLQAEDVAVYYCQQYYDYPNTFGQGTKLEIK | – | – | 1.42 | –
5 | CVH4 (D54E)/CVL3 (antibody, V domains shown) VH: QVQLQESGPGLVKPSQTLSLTCSFSGFSLSTSGMVVSWIRQPPGKALEWLAAIDWEGEKYYNPSLKSRLTVTKDTSKNQVVLTMTNMDPVDTATYYCARSGNYFEYWGQGTLVTVSS VL: DNQMTQSPSSLSASVGDRVTITCRTSEDIYNALAWYQQKPGKAPQLLIYDANRLHIGVPDRFSGSGSGTDFTLTISSLQAEDVAVYYCQQYYDYPNTFGQGTKLEIK | – | – | 7.48 | –
6 | CVH4 (D54E)/CVL3 + YTE (antibody, V domains shown) VH: QVQLQESGPGLVKPSQTLSLTCSFSGFSLSTSGMVVSWIRQPPGKALEWLAAIDWEGEKYYNPSLKSRLTVTKDTSKNQVVLTMTNMDPVDTATYYCARSGNYFEYWGQGTLVTVSS VL: DNQMTQSPSSLSASVGDRVTITCRTSEDIYNALAWYQQKPGKAPQLLIYDANRLHIGVPDRFSGSGSGTDFTLTISSLQAEDVAVYYCQQYYDYPNTFGQGTKLEIK | – | – | 3.34 | –
7 | CSJ-A-s-2B11 (antibody, V domains shown) VH: QVQLKESGPGLVQPSQTLSLTCTVSGFSLDNYNVHWVRQPTGGGLEWLGGIWTDGITDYTSPLRSRLSISRDTSKSQVFLKMKSLQTEDIATYYCARSYYYSLYYFDYWGQGVMVTVSS VL: DIQMTQSPASLSASLGETVTIECRASEDIYSNLAWYQQKPGDSPQLLIYDAHRLAEGVPSRFSGSGSGTQYSLKINSLHSEDVASYFCQQYDNYNTFGVGTKLDLK | 28200 | 23.8 | – | Kd (human IL-11 [5]): 21.4 pM; Kd (human IL-11 [6]): 21.3 pM; Kd (mouse IL-11 [7]): 28200 pM
8 | CSJ-A-s-10D10 (antibody, V domains shown) VH: QVQLKESGPGLVQPSQTLSLTCTVSGFSLTNYHVHWVRQPPGKGLEWMGVMWIDGDTSYNSALRSRLSISRDTSKSQVFLKMSSLQTEDTATYYCAREGLNWFAYWGRGTLVTVSS VL: DIQMTQSPASLSVSLEEVVTITCKASQGIDDYLSWYQQKPGKSPQLLISDVTSLADGVPSRFSGSRSGTQYSLKISRPQVDDSGIYYCLQSYSTPYTFGAGTKLELK | 875 | 424 | – | –

Now from value to binder, other results behind:

Row | Kd (mouse IL-11 [2]) [pM] | Kd (human IL-11 [3]) [pM] | Kd (human IL-11 [4]) [pM] | Binder | also measured
9 | – | – | 7.58 | VH0/VL0 (antibody, V domains shown) VH: QVILKESGPGMLQPSKTLSLTCSFSGFSLSTSGMVVSWIRQPSGKSLEWLAAIDWDGEKYYNPSLKSRLTVSKDTSNTQVFLQITTVDIADTATYYCARSGNYFEYWGQGVIVTVSS VL: DNQMTQSPASLSASLGETVTIECRTSEDIYNALAWYQQKPGKSPQLLIYDANRLHIGVPSRFSGSGSGTQFSLKINSLQSEDVASYFCQQYYDYPNTFGAGTKLELN | –
10 | – | – | 96.6 | GVH5 (D54E)/GVL5 (antibody, V domains shown) VH: QITLKESGPTLVKPTQTLTLTCTFSGFSLSTSGMVVGWIRQPPGKALEWLAAIDWEGEKYYSPSLKSRLTITKDTSKNQVVLTMTNMDPVDTATYYCARSGNYFEYWGQGTLVTVSS VL: DIQMTQSPSSLSASVGDRVTITCRTSEDIYNALAWYQQKPGKAPQLLIYDANRLHIGVPSRFSGSGSGTDFTLTISSLQPEDFATYYCQQYYDYPNTFGQGTKLEIK | –
11 | – | – | 9.89 | GVH5 (D54E)/CVL3 + YTE (antibody, V domains shown) VH: QITLKESGPTLVKPTQTLTLTCTFSGFSLSTSGMVVGWIRQPPGKALEWLAAIDWEGEKYYSPSLKSRLTITKDTSKNQVVLTMTNMDPVDTATYYCARSGNYFEYWGQGTLVTVSS VL: DNQMTQSPSSLSASVGDRVTITCRTSEDIYNALAWYQQKPGKAPQLLIYDANRLHIGVPDRFSGSGSGTDFTLTISSLQAEDVAVYYCQQYYDYPNTFGQGTKLEIK | –
12 | – | – | 18.1 | GVH5 (D54E)/CVL3 (antibody, V domains shown) VH: QITLKESGPTLVKPTQTLTLTCTFSGFSLSTSGMVVGWIRQPPGKALEWLAAIDWEGEKYYSPSLKSRLTITKDTSKNQVVLTMTNMDPVDTATYYCARSGNYFEYWGQGTLVTVSS VL: DNQMTQSPSSLSASVGDRVTITCRTSEDIYNALAWYQQKPGKAPQLLIYDANRLHIGVPDRFSGSGSGTDFTLTISSLQAEDVAVYYCQQYYDYPNTFGQGTKLEIK | –
13 | – | – | 79.2 | GVH5 (D54E)/GVL5 + YTE (antibody, V domains shown) VH: QITLKESGPTLVKPTQTLTLTCTFSGFSLSTSGMVVGWIRQPPGKALEWLAAIDWEGEKYYSPSLKSRLTITKDTSKNQVVLTMTNMDPVDTATYYCARSGNYFEYWGQGTLVTVSS VL: DIQMTQSPSSLSASVGDRVTITCRTSEDIYNALAWYQQKPGKAPQLLIYDANRLHIGVPSRFSGSGSGTDFTLTISSLQPEDFATYYCQQYYDYPNTFGQGTKLEIK | –
